These results are taken from patent US20100047245A1.

Numbering of substitutions follows the chain as printed.

The target in assay [1] is recombinant purified human IL-12 p70 (human) (UniProt P29459). The assay is described as follows: SPR (BIAcore) per Example 1.1.B, recombinant human IL-12p70.
Assay [2] shares this target. Kind of assay: cell-based or functional assay.
For assay [3] the target is unchanged. The assay is described as follows: SPR (Biacore 3000), mAb captured via goat anti-mouse IgG Fc, human IL-12 p70 in solution.
For assay [4] the target is unchanged. Kind of assay: competition ELISA on plate-coated human IL-12; competes 0.8 µg/ml biotinylated 8E1; Expt. 2.
Assay [5] shares this target. Kind of assay: competition ELISA on plate-coated human IL-12; competes 0.8 µg/ml biotinylated 8E1; Expt. 1.
For assay [6] the target is unchanged. Kind of assay: competition ELISA on plate-coated human IL-12; competes 0.8 µg/ml biotinylated 8E1; Average.
Assay [7] shares this target. The assay is described as follows: competition ELISA on plate-coated human IL-12; competes 0.8 µg/ml biotinylated 8E1; Expt. 3.
For assay [8] the target is unchanged. The assay is described as follows: SPR (Biacore) per Example 1.1.B, recombinant human IL-12p70.
For assay [9] the target is unchanged. Kind of assay: SPR (Biacore) per Example 1.1.B; antigen not restated, taken as human IL-12 p70.

recombinant purified human IL-12 p70 (human), sequence (chain, as listed by the source, form in doubt, chain 1 of 2): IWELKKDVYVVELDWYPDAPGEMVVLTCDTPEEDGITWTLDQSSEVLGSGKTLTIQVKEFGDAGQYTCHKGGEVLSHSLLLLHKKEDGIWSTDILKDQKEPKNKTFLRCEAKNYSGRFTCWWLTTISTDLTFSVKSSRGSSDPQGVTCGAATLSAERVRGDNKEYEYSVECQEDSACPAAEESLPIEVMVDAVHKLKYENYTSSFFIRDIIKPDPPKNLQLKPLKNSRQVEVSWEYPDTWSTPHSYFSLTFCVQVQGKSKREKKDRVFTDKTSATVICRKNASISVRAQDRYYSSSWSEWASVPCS
recombinant purified human IL-12 p70 (human), sequence (P29459 23-219, form in doubt, chain 2 of 2): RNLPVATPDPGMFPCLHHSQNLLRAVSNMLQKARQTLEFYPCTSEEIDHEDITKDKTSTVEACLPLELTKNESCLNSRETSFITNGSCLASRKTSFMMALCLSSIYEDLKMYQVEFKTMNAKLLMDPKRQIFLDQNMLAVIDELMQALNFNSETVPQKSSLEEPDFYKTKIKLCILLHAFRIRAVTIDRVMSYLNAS

B1: 1A6.9 (antibody, human IgG1, kappa, L234A L235A, V domains shown)
VH: EVTLRESGPALVKPTQTLTLTCTFSGFSLSTSGMGVSWIRQPPGKALEWLAHIWWDGDNYYNPSLKSRLTISKDTSKNQVVLTMTNMDPVDTATYYCARRTRVNYAMDYWGQGTTVTVSS
VL: SVVMTQSPDSLAVSLGERATINCKASQSVSNDVAWFQQKPGQPPKLLIYYASNRYTGVPDRFSGSGYGTDFTLTISSLQAEDVAVYYCQQDYNSPWTFGGGTKVEIKR
In the case of B1, in [1], the Kd is < 0.01 nM, the koff was < 1e-05 s⁻¹ and the on-rate (kon) was 350000 M⁻¹ s⁻¹. The Av. IC50(nM) huIL-12; PHA blast IFN-gamma induction assay in assay [2] came out at 0.15 nM.

B2: 8E1 (antibody, V domains shown)
VH: EVKLVESGGGLVQPGGSRKLSCAASGFTFSDYGMVWVRQAPGKGLEWVASISSGSSNIYYADTVKGRFTISRDDPNNTLFLQMRSLRSEDTAMYYCARNPYWGQGTTLTVSS
VL: DIVMTQSQKFMSTSVGDRVSVTCKASQNVGTNVAWYQQKPGQSPKGLIYSASHRYSGVPDRFAGSGSGTDFTLTISNVQSEDLAEYFCQQYNSYPLTFGGGTKLELKR
For B2, in assay [3], the Kd came out at 0.074 nM. The koff in [3] was 5.1e-05 s⁻¹. For the same molecule, the on-rate (kon) in [3] was found to be 690000 M⁻¹ s⁻¹. The IC50 in assay [4] came to 2.78 µg/mL; in assay [5] it was 2.63 µg/mL; in [6], 2.56 µg/mL; in assay [7], 2.28 µg/mL. The Average IC50 (nM) Human IL-12; PHA blast IFN-gamma induction assay in [2] was 0.19 nM.

B3: 8E1.3 (antibody, human IgG1, kappa, L234A L235A, V domains shown)
VH: B2 VH with R18L, K19R, P75S, N76K, F80Y, R84N, R87K, S88T, M93V, L108V
VL: DIVMTQSPSSLSASVGDRVTITCKASQNVGTNVAWYQQKPEKAPKSLIYSASHRYSGVPSRFSGSGSGTDFTLTISSLQPEDFATYYCQQYNSYPLTFGGGTKVEIKR
With B3, in [1], the Kd turned out to be 0.76 nM, the koff was 0.001 s⁻¹ and the kon was found to be 1.3e+06 M⁻¹ s⁻¹. Further, in [2], the Av. IC50(nM) huIL-12; PHA blast IFN-gamma induction assay came out at 10 nM.

B4: 8E1.1 (antibody, human IgG1, kappa, L234A L235A, V domains shown)
VH: EVQLVESGGGLVQPGGSLRLSCAASGFTFSDYGMVWVRQAPGKGLEWVGSISSGSSNIYYADTVKGRFTISRDDSKNSLYLQMNSLKTEDTAVYYCARNPYWGQGTTVTVSS
VL: B3 VL with V3Q
Consider B4, for which, in assay [8], the Kd came to 1.7 nM, the koff was 0.00087 s⁻¹ and the kon came to 520000 M⁻¹ s⁻¹. In addition, in [2], the Av. IC50 (nM) Hu IL-12; PHA blast IFN-gamma induction assay stood at 2.8 nM.

B5: 8E1.4 (antibody, IgG1, V domains shown)
VH: B4 VH with G49A, D74N, S75A, S78T, K87R, T88A, T107L
VL: B3 VL with V3Q, E41G, S46G
On to B5, for which, in [9], the Kd stood at 1.3 nM, the koff was determined as 0.001 s⁻¹ and the kon is 800000 M⁻¹ s⁻¹. Also, the IC50 in [7] is 8.33 µg/mL. The Av. IC50(nM) huIL-12; PHA blast IFN-gamma induction assay in [2] was 12 nM.

B6: 8E1.5 (antibody, IgG1, V domains shown)
VH: B4 VH with G49A, D74N, S75A, S78T, K87R, T88A, T107L
VL: B3 VL with V3Q, E41G, S46G, S60D
In the case of B6, in [9], the Kd was 0.75 nM, the koff was determined as 0.00124 s⁻¹ and the kon came to 1.6e+06 M⁻¹ s⁻¹. Further, in [7], the IC50 was found to be 13.4 µg/mL. For the same molecule, the Av. IC50(nM) huIL-12; PHA blast IFN-gamma induction assay in assay [2] is 8 nM.

B7: 8E1.6 (antibody, V domains shown)
VH: B4 VH with G49A, S75A, S78T, K87R, T88A, T107L
VL: B3 VL with V3Q, E41G, S46G
Take B7: in assay [9], the Kd was determined as 0.046 nM. In addition, in [9], the koff turned out to be 8e-05 s⁻¹. In addition, the kon in [9] turned out to be 1.7e+06 M⁻¹ s⁻¹. The concentration for half-maximal inhibition (IC50) in [4] was determined as 2.43 µg/mL; in [5], 2.25 µg/mL; in assay [6], 2.1 µg/mL; in assay [7] it was 1.61 µg/mL.
